According to patent US20240132578A1:

How the values were obtained:
Test in all cases: cell-based or functional assay
[1] = target: HIV-1 Env of pseudovirus MGRM-F1-006 (clade F) (HIV-1)
[2] = target: HIV-1 Env of isolate MGRM-G-028 (subtype G) (HIV-1)
[3] = target: HIV-1 Env of isolate MGRM-AE-007 (pseudovirus) (HIV-1)
[4] = target: HIV-1 Env of isolate MGRM-D-005 (clade D pseudovirus) (HIV-1)
[5] = target: HIV-1 MGRM-G-006 Env (pseudovirus) (HIV-1)
[6] = target: HIV-1 Env of isolate MGRM-AE-008 (pseudovirus) (HIV-1)
[7] = target: HIV-1 Env of isolate MGRM-G-015 (subtype G) (HIV-1)
[8] = target: HIV-1 Env of isolate MGRM-Chronic-B-008, clade B (HIV-1)
[9] = target: HIV-1 Env of isolate MGRM-AE-003 (pseudovirus) (HIV-1)
[10] = target: HIV-1 Env of isolate 93TH305, clade B (HIV-1)
[11] = target: HIV-1 Env of isolate MGRM-Chronic-B-002, clade B (HIV-1)
[12] = target: HIV-1 Env of isolate MGRM-G-027 (subtype G) (HIV-1)
[13] = target: HIV-1 Env of isolate MGRM-D-012 (clade D pseudovirus) (HIV-1)
[14] = target: HIV-1 envelope glycoprotein (Env) of isolate MGRM-C-005 (HIV-1)
[15] = target: HIV-1 envelope glycoprotein (Env) of isolate 93IN905 (HIV-1)
[16] = target: HIV-1 Env of pseudovirus MGRM-F1-016 (clade F) (HIV-1)
[17] = target: HIV-1 envelope glycoprotein (Env) of isolate MG RM-A-012, subtype A (HIV-1)
[18] = target: HIV-1 JR-CSF Env I424A (HIV-1 (isolate JR-CSF)) (UniProt P20871)
[19] = target: HIV-1 envelope glycoprotein (Env) of isolate CMU02, subtype AE (HIV-1)
[20] = target: HIV-1 JR-CSF Env Q422A (HIV-1 (isolate JR-CSF)) (UniProt P20871)
[21] = target: HIV-1 envelope glycoprotein (Env) of isolate MGRM-Chronic-B-024, on pseudovirus (HIV-1)
[22] = target: HIV-1 envelope glycoprotein (Env) of isolate MG RM-A-001, subtype A (HIV-1)
[23] = target: HIV-1 envelope glycoprotein (Env) of isolate VLGCA1, subtype A (HIV-1)
[24] = target: HIV-1 MGRM-D-001 envelope protein (Env) on pseudovirus (HIV-1)
[25] = target: HIV-1 Env of isolate MGRM-F1-022 (HIV-1)

Substance | IC50 (µg/mL), pseudovirus neutralization [3] [µg/mL] | IC50 (µg/mL), pseudovirus neutralization [6] [µg/mL] | IC50, pseudovirus neutralization [17] [µg/mL] | Fold IC50 increase relative to wild-type (pseudovirus neutralization) [18] [fold] | IC50, pseudovirus neutralization [19] [µg/mL] | Fold IC50 increase relative to wild-type (pseudovirus neutralization) [20] [fold] | IC50, pseudovirus neutralization [21] [µg/mL] | IC50, pseudovirus neutralization [22] [µg/mL] | IC50, pseudovirus neutralization [23] [µg/mL] | IC50 (ug/mL), pseudovirus neutralization [24] [µg/mL] | further results
1496_C09 (PG9) (TCN-109) (antibody) | 0.18 | 31.5 | – | – | – | – | – | – | – | – | IC50 [1]: 1.45 µg/mL; IC50 (µg/mL), pseudovirus neutralization [2]: 0.891 µg/mL; IC50, pseudovirus neutralization [4]: 0.59 µg/mL; IC50 (µg/ml), pseudovirus neutralization [5]: 0.51 µg/mL; IC50 (µg/mL), pseudovirus neutralization [7]: 6.6 µg/mL; IC50 (µg/ml), pseudovirus neutralization [8]: 6.66 µg/mL; IC50 (µg/mL), pseudovirus neutralization [9]: 0.044 µg/mL; IC50 (µg/ml), pseudovirus neutralization [10]: 2.08 µg/mL; IC50 (µg/ml), pseudovirus neutralization [11]: 1.41 µg/mL; IC50 (µg/mL), pseudovirus neutralization [12]: 0.007 µg/mL; IC50, pseudovirus neutralization [13]: 9.31 µg/mL; IC50 (µg/ml), pseudovirus neutralization [14]: 2.98 µg/mL; IC50 (µg/ml), pseudovirus neutralization [15]: 0.03 µg/mL; IC50 [16]: 0.58 µg/mL
5145_B14 (PGT-127) (antibody) | > 50 | > 50 | 0.105 | 2 | > 50 | 0.1 | > 50 | > 50 | > 50 | – | –
5123_A06 (PGT-125) (antibody) | 0.876 | > 50 | 0.177 | 0.7 | > 50 | 1.2 | > 50 | 12.4 | 0.078 | 2.31 | –
5141_B17 (PGT-126) (antibody) | > 50 | > 50 | 0.097 | 0.4 | > 50 | 1.1 | > 50 | > 50 | > 50 | 0.0639 | Neutralization IC80 [15]: 0.0676 µg/mL; Neutralization IC90 [15]: 0.14 µg/mL; Neutralization IC95 [15]: 0.275 µg/mL; neutralization IC50 [15]: 0.0194 µg/mL
4858_P08 (PGT-123) (antibody) | > 50 | > 50 | 0.192 | 0.5 | > 50 | 0.8 | > 50 | > 50 | > 50 | 0.215 | –
4838_L06 (PGT-121) (antibody) | – | – | 0.092 | – | > 50 | – | 0.195 | > 50 | > 50 | – | –
4877_D15 (PGT-122) (antibody) | > 50 | > 50 | 0.257 | – | > 50 | – | 2.31 | > 50 | > 50 | 0.867 | –
PGV04 (antibody) | 5.75 | 1.51 | – | – | – | – | – | – | – | – | IC50 (µg/mL), pseudovirus neutralization [2]: 0.352 µg/mL; IC50 (µg/mL), pseudovirus neutralization [25]: 0.072 µg/mL; IC50 (µg/mL), pseudovirus neutralization [7]: 0.333 µg/mL; IC50 (µg/mL), pseudovirus neutralization [9]: 6.4 µg/mL; IC50 (µg/mL), pseudovirus neutralization [12]: 0.125 µg/mL
